Data on one molecule can be found in publication PMC5433095 (mBio, 2017).

Assay [1] concerns the target genotype 2a JFH1 E1E2 displayed on retrovirus-based HCV pseudoparticles (HCVpp) (Hepatitis C virus genotype 2a, isolate …, UniProt Q99IB8). Kind of assay: immunocapture of virus particles. The following applies: one partner purified.
Assay [2] has as its target T1, E1E2 glycoprotein complex on infectious cell culture-derived HCV particles (HCVcc) of strain JFH-1 (Hepatitis C virus genotype 2a, isolate …, UniProt Q99IB8).
T1 construct: source: concentrated HCVcc of infectious HCV strain JFH-1
Kind of assay: immunocapture of virus particles. To be noted: one partner purified.

B1: MAb DAO5 IgG (antibody, V domains shown)
VH: EVQLQQSGPELVKPGASLKISCKTSGYTFTDFTFHWVKLSHGPSLEWIGTIKPSNGDTAYNQKFKGKATLSVDKSASTAHIEFRSLTSEDSAVYFCARFGGSYPYAMDYWGQGTSVIVSS
VL: DIVLTQSPATLSVTPGDRVSLSCRASQGIYNYVHWFQQKSHESPRLLIKYASQSISGIPSRFSGSGSGTDFTLSINSVESEDFGMYFCQQTNKWPLTFGAGTKLELK
For the molecule B1, the binding result in assay [1] and in assay [2] was “binds” throughout.
